For four substances, Activity (dpm), HepPS activity of proteins mixed in equal amounts and Activity (dpm), prenyl diphosphate (HexPP) synthetase activity of mixed crude homogenates results are on record in US6071733.

Test [1] addresses polypeptide Hep2, subunit of the thermoresistant heptaprenyl diphosphate synthetase of Bacillus stearothermophilus (ATCC 10149) (Bacillus stearothermophilus (ATCC 10149)).
Test [2] deals with polypeptide GERC3, subunit of the heptaprenyl diphosphate synthetase of Bacillus subtilis (ATCC 6633) (Bacillus subtilis (ATCC 6633)) (UniProt P31114).
The target of test [3] is polypeptide Hex3, polypeptide of subunit (B) of the hexaprenyl diphosphate synthetase of Micrococcus luteus B-P 26 (Micrococcus luteus B-P 26).
In test [4] the target is Hex2, protein encoded by hex2 of Micrococcus luteus B-P 26 (Micrococcus luteus B-P 26).

Consider “polypeptide GERC1, subunit of the heptaprenyl diphosphate synthetase of Bacillus subtilis (ATCC 6633) (enzyme)”, for which the Activity (dpm), HepPS activity of proteins mixed in equal amounts stood at 7920 dpm in test [1] and 136 dpm in test [2].
In test [1], “polypeptide Hep1, subunit of the heptaprenyl diphosphate synthetase of Bacillus stearothermophilus (ATCC 10149) (from UniProt P55784) (enzyme)” registered an Activity (dpm), HepPS activity of proteins mixed in equal amounts of 0 dpm.
For the substance “polypeptide Hex1, polypeptide of subunit (A) of the hexaprenyl diphosphate synthetase of Micrococcus luteus B-P 26 (enzyme)”, the Activity (dpm), prenyl diphosphate (HexPP) synthetase activity of mixed crude homogenates amounted to 2920 dpm in test [3] and 0 dpm in test [4].
With “Hex2, protein encoded by hex2 of Micrococcus luteus B-P 26”, the Activity (dpm), prenyl diphosphate (HexPP) synthetase activity of mixed crude homogenates in test [3] stood at 0 dpm.
